Laboratory results as given in the supplement of paper PMC10567573.

B1: DCAF4 (parent)
chain: PGIDRPGMLCSFRIPGAWSCAWSL
B2: DLC1 (parent)
chain: NDDSADYQHFLQDCVDGLFKEVKE

Variants of: B1
Experiment: protein stability index of a GFP-peptide fusion (GPS, HEK-293T) (PSI 1-6); higher = more stable
Settings: c terminus: a fixed tail appended
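Also: lentivirally expressed fusions sorted by FACS into six bins by GFP to DsRed ratio, PSI derived from sequencing read proportions per bin multiplied by bin number.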

Protein stability index, by site and new letter:
P6: A 3.48
A17: M 3.08
C10: P 2.2 | S 2.9
G16: Q 2.3
P1: N 3.47
W22: D 1.5
R13: C 2.03
S19: A 3.16 | P 1.66
F12: L 2.62
G2: L 2.54

Variants of: B2
Experiment: as above
Settings: c terminus: a fixed tail appended

Protein stability index of substitutions, site by site:
G17: T 2.21 | S 2.58 | Y 2.44 | W 2.43 | Q 2.44 | D 4.28 | H 2.37 | L 1.82 | C 1.71 | E 2.41 | V 2.16 | N 2.39
S4: D 2.9 | M 2.05 | E 1.63 | V 2.57 | G 3.56 | K 1.36 | I 2 | H 2.65 | Y 2.22 | P 2.34 | C 1.56 | R 2.41 | W 2.26 | N 2.57
D3: A 2.77 | Y 2.24 | G 2.23 | F 3.3 | N 3.02 | W 1.71 | C 1.71 | T 2.2 | I 2.19 | P 2.65 | H 2.17 | E 3.85 | V 3.69
Q12: P 4.15 | S 3.3 | I 3 | N 4.24 | D 4.83 | R 2.42 | G 4.34 | H 3.17 | F 3.48 | C 3.91 | W 1.79 | E 4.75 | T 4.32
E21: T 1.98 | C 2 | S 3.27 | F 2.51 | I 3.01 | R 2.55 | N 3.81 | V 1.83 | K 2.57 | W 2.28 | Y 2.03 | P 3.94
F10: M 2.34 | S 3.92 | L 1.62 | K 3.6 | R 3.96 | W 1.98 | G 4.53 | V 1.42 | D 5.1 | A 2.08 | I 1.78 | P 4.36
K20: Q 3.23 | R 2.51 | A 3.35 | W 2.95 | Y 2.88 | H 3.45 | I 3.05 | C 3.38 | L 2.87 | T 4 | G 3.84 | E 3.55 | S 4.74 | D 5.24
N1: R 2.53 | Q 2.69 | S 2.6 | F 1.5 | I 1.59 | G 1.9 | H 2.29 | C 2.24 | W 1.28 | V 1.56
Q8: R 2.08 | V 2.93 | K 2.1 | D 2.96 | L 1.77 | P 2.64 | T 2.44 | E 2.62 | H 2.36 | C 1.69
H9: C 2.53 | I 2.48 | S 3.43 | R 2.86 | V 1.92 | A 3.13 | T 2.25 | W 3.03 | K 2.63 | D 2.83 | Y 2.24 | E 3.47 | P 3.71 | G 2.62
D2: K 2.11 | F 2.47 | A 2.17 | H 2.66 | N 2.27 | Q 2.91 | I 2.18 | M 2.48 | W 2.15 | V 1.96 | L 2.37 | C 2.14
L11: C 3.07 | N 4.76 | R 5.35 | V 4.18 | D 5.47 | E 5.25 | I 3.54 | T 4.94 | W 3.78 | G 5.35 | Y 4.47 | K 5.08 | A 5.62 | Q 5.4 | M 3.29
C14: S 4.91 | D 5.03 | V 3.21 | R 4.87 | T 4.12 | H 5.11 | E 5.38 | N 5.34 | G 4.86 | P 5.07 | I 2.41 | Q 4.71 | M 3.63 | W 4.31 | F 2.49 | L 1.97 | Y 2.54
V15: A 4.04 | D 4.8 | H 4.94 | S 4.71 | N 4.78 | M 4.34 | G 5.45 | I 2.68 | R 4.73 | T 5.09 | C 4.79 | F 3.85 | Y 3.61 | Q 4.74
Y7: S 3.89 | M 2.08 | G 4.01 | T 3.31 | N 5.14 | D 4.17 | K 4.33 | P 4.62 | C 2.55 | V 3 | Q 4.52 | E 4.11
A5: R 2.49 | V 2.02 | I 2.05 | Q 2.55 | K 2.93 | N 2.9 | G 2.4 | M 2.15 | E 2.92 | L 2.73 | T 2.46
V22: K 5.5 | W 4.73 | I 2.58 | M 4.08 | H 5.31 | N 5.27 | R 5.08 | S 5.4 | T 4.87 | A 4.42 | C 4.3 | Y 4.05 | F 3.84 | P 4.26 | E 5.42 | D 5.46
D6: S 3.44 | Q 3.12 | T 2.5 | I 2.32 | C 2.8 | K 3 | G 3.62 | W 2.52 | P 3.38 | E 3.29 | Y 2.94 | M 2.63 | L 2.03
E24: A 2.17 | C 2.33 | M 2.3 | T 2.81 | V 2.69 | S 1.91 | I 2.1 | N 2.5 | Y 1.66 | L 2.36 | K 2.2 | W 1.67 | Q 2.51 | F 2.11 | G 3.66
F19: Q 5.08 | V 2.89 | G 5.54 | C 3.38 | Y 2.94 | A 5.02 | L 1.51 | T 5.45 | P 5.17 | I 2.72 | H 4.82 | W 2.96 | N 5.21 | K 5.25 | S 5.67 | D 5.61 | R 4.46
D16: V 2.99 | P 4.34 | R 4.08 | Q 2.31 | S 3.22 | H 3.44 | Y 2.21 | C 2.29 | K 2.56 | M 2.81 | N 2.81 | E 2.08
L18: R 4.58 | M 4.47 | Q 5.2 | H 5.37 | W 4.64 | K 5.3 | E 5.3 | Y 3.71 | C 5.13 | V 4.53 | N 5.43 | D 5.73 | S 5.03 | I 3.73 | T 4.96 | P 4.93
K23: E 3.72 | Q 2.75 | H 3.88 | R 2.57 | N 3.37 | I 1.9 | V 2.05 | M 2.01 | L 2.06 | S 3.09 | W 2.66 | D 4.98 | A 2.56
D13: K 2.05 | S 2.2 | P 2.27 | M 2.34 | Y 2.14 | L 1.76 | F 1.86 | R 2.02 | V 1.56 | A 1.79 | N 2.38 | T 2.16 | E 2.66 | H 1.51 | I 1.84
